Measured values from the DeepSol protein solubility set.

test: soluble on expression in E. coli; label from the status in PepcDB or PDB records

Row | Sequence | soluble on expression in E. coli
1 | MSLYRDSKRKIIRDLQKQDIQYVEYGDTRTLIIPTDKYFMFSSPRLNEICYPGLNNVIRLLNFYPQSTIYVAGFTDNVGSRSHKRKLSQAQAETMMTFLWANGIAAKRLKAEGYGDKNAISDNAIIHGSAQNRRIEIQWFTSPAQPPQPQMAYVKEGHHHHHH | soluble
2 | MAHHHHHHMTFSVKGGSYSSSHPSPAMHPYVSPSLLPQSHGQQAPPSFSLGDEQYVGVPKRVGVDPTKYKTTICRNWEQTGTCAFRGCTFAHGVEELRAPLRPDGHTPVLRPQHISPGSTPPLRASQPPPPPSSGHYTLEQLLDMLYKEVLHQRELVTVHVEANTTLEGMLRREQAQHDASKKQLEEKTQQCELFARELFARNQQLRKAADSSPEIKELLDQWETQLASFSEADVKKDDVFHTATATSSTDDGGDSGKEYESARIEELLRALQR | not soluble
3 | AHHHHHHGSSAKLERIVEEISVAFVGHEDVVRKVLSAALANGNVLFEDNPGLGKTLLAKAFAKVLGLEYRRVQFTPDLLPSDILGTKVWRPEKGTFEIVKGPIFTNVLLADEINRAPPKTQSALLEAMEERQVTIEGETFVLERPFFVIATQNPLEFEGTYPLPEAQLDRFLVRMSIGYPKNESEEVEILKARLRWGKDDPTTDLKPAITKSEFLKMQEDVERNVKIHEDILKYIVRIVRTIREDERVEAGPSPRGGLALMKLAKANAYVEGRDYVIPDDVKEFAIEALAHRIFLKPEYSLEKGIEIEIVREALESVPVPKDLKY | not soluble
4 | NKNFSWNTDWTYSLNREKIKALNSGVTRDEGNLWFVGSPTQVFYDYKKIGIWQLGEEVQAKAFGGFKPGDIKVADMSPKGSEGEGVFSTDDRVIFSRVPKYTFGITNNIIYKNFDLMFFIYGRIGQYVKDAYTQLYKPSALENSAPVNYWTPENPSNEYPRPNSGYSTNSYLLQSSLAFRKASFVKIRDITLGYTLPKEWTSKMMVQKLRIYCSLNNFITFTDFPNYDPESNGSMDFPLAKQVLFGINLSL | not soluble
5 | MSSNVPADMINLRLILVSGKTKEFLFSPNDSASDIAKHVYDNWPMDWEEEQVSSPNILRLIYQGRFLHGNVTLGALKLPFGKTTVMHLVARETLPEPNSQGQRNREKTGESNCCVIL | soluble
6 | SATREWFVMNAQQTKLALESPPLFAVKKDDDKDHTCDTGEEPYALVGSPVFNPLEDYKREVVSIIDEYFSSGDVEVAASDLMDLGLSEYHPYFVKRLVSMAMDRGNKEKEKASVLLSRLYALVVSPDQIRVGFIRLLESVGDLALDIPDAVNVLALFIARAIVDEILPPVFLARAKKTLPHSSQGFQVILVSENSYLSAPHHAELVETKWGGSTHITVEETKRKISEFLNEYVENGDTREACRCIRELGVSFFHHEIVKSGLVLVMESRTSEPLILKLLKEATEEGLISSSQMAKGFSRVADSLDDLSLDIPSAKTLFESIVPKAIIGGWLDEDSFKERSDQNGGSENLRRFKKDAETIIQEYFLSDDIPELIRSLEDLGLPEYNPVFLKKLITLAMDRKNKEKEMASVFLASLHMEMFSTEDFINGFIMLLESAEDTALDILAASDELALFLARAVIDDVLAPLNLEEISNSLPPKSTGSETIRSARSLISARHAGERLLRSWGGGTGWAVEDAKDKIWKLLEEYEVGGVISEACRCIRDLGMPFFNHEVVKKALVMAMEKKNDRMLNLLQECFAEGIITTNQMTKGFGRVKDSLDDLSLDIPNAEEKFNSYVAHAEENGWLHRDFGCSTDS | soluble
7 | MGSDKIHHHHHHMNPNIAKISSLLSDPSRSSILLSLMDGRIHPAGELAYLANIKPQTASFHLNKLLEAKLISVEKHGRHRYYRLADSDAANVIEQLLHIAPKAKVKSLKESKEKKDLHFARTCYDHLAGYVGVQMAHSLVEQGMLKKVDLNFEVTSEGALFFSKLGINEEQQRNKRRAFARCCLDWSERQHHIAGALGNALLVRMLEEEWIVRMPKTRAIRITQSGKIAFEKHLNVKI | not soluble
8 | MAHHHHHHMIRKIIILMFTFFSNIHNEKIYHHKQRRKFLKGPLGYLNRNVIQKKHYNLYAKKFINYKEIQIQRINDYRKRSGVDKNNINYNLRDTYNYHETHLFVRNEVLPTLAKIENENLKEKEKNKEIFRNINDYNSNFTRQTFLQFLMDLYNIFLKIDDLFLENKTYFSILIYNGPMQLTNHLYDDIIYVSSVVENSDDVSPSEYCMEYISHLENLCEENKLSFLAHAYVFYKNFHLSKEHLLKSICKYLNIIKKLKSSTYVADVENFEVSQKCFLHLLFCLNKMSRKWSRWEKDNFLASLHNATNKMMILTKHFEKVKS | not soluble
9 | MGSDKIHHHHHHMSVRCASLSAMELTQATVNDLLAQLGPGDSYMYLPSDLDPQDLTDLLDGRYGAARTLVLDGFTDPTVDESRGAALLVPFEDRAVKIRAWAYGDQWVGTGTARDAKGAERPVLVVAHREVPEPLAVAPDEDEDVDWMERLIRITGWTRPAQRPDVDWAEVESRLGTALPSDYKRMVETFGEGAFDGYLDLNQEPWTDLRRDGLLIWAGTEHEDLYCWRADGDDPDRWPVVVRSFDNKDVPFDCQAAKFVCRILIDPHHPFTMARYFDTHWFMNYRESG | not soluble
10 | MSRQRLGKSMIKANSWSSNLNAYRILQEPQSLTEEPPPIQTICPVQPESMAPPEHHNHRHLVTQEENRGRHLVGNPMRRTRSDVGAHGLTPHQPLLTRSKSDHGLERVATPLAFEVQSVGSEQTASSAEVMTAAGRRHSLLTDYQAAIARPLDLDRVLAAVKLRAAAEIYCKKNNLARLSPRPPRTSAGNQRLDALVNRPVDELIAEVQAAPRKFSRTQLTDVAQRHLLAALNIDIDQYKKGVHKAGLYEGLHSVAGRLVSVAAAAVSAGVSEVPGVSKTVTKTVKILSHQLPSSVVNPALTGGLRSVTDVMESFKRVGGLPVLSPQIDKSPDMGKIVKAAREMRGQLDEAVGHFARAHKSDPQALPRLVDAFLALHGVADRQYRRRIGLNRTQTYGKGWGMAVNGVAAIGTVVSTTVPVVGQVAGPAILASTIPLQWGAGYLDERRNKHRYNLRANTKWGDFLKDNAANIHFKDLTVEHISESKLRQSFLTQPEVQIAAIREVYEDTIGELMRRRLEMQKDIDVQREAGRPMRALALKQLRELDAEIDVTKMHADQFESFNMDRWSAIPEDSVIGRCLDDLDNLQKANRRARLRKPGEGAQIVQRYVQAFQGGVSTGTTLPVVDAVASIDSFHVHDSQGHDHGLQPAPLAVAAGTGAAGGAVFTGATGEVRMSKADNKKIMTQLRVDPEVYTADAEHWRFRAGNRDVDLRTSAGYKQHAHTRWDELALVAQALKHGLTSGPVGLKNLAVAKVELRQARASLQSALDALAASGLPHRTPDSARAPTISSMKDQLYDYSEVRRHLGV | not soluble
11 | MLRNLILITLLVASGHGQTPVIGGTCKLGTADVQIGGKQTQFFLKCETTADSAEGEGVWVVKSRAAAAPSSVPSVPAENTQPQQHPKARKPASPNICEQDNGARESEVCAVSATCLQAHNDFPSSYLQCDQTTLRWVRKSCQENFLFNFEQQTCIVPKRMSSLSRQQASGLVCTFSSCSNSNPCSVGTCNNGYCCSSGSNSGSAIIVGGGSSNCVGCQNAPQIITIPQNSCPGGGYSVGGCSSGYCATGYSCIQNQCCPSYNSAPRISVYTCPSGGNAVGACMSGRCASGYTCSNNVCCPQTTTTNPFVCPDGTQAAGGCVNGQCGTGYTCSNGLCCAGTSTTVKCLDGSDAVGACIPSCTGDGCGGVQVSYYCGSGYTCTTGNICCPINSCPNGGEVLGPTINGLCPTGYTVQGNLCCSATCTDGSTGLPSVNGVCIDGYSLTNGVCCPASVTCTDEISIGPCTGTGFNGGCPAGYACDSNQVNCCPVVRYTDESCQVGPAIDGLCPPGYVVVYIPNSPLITNGVNPGTCIDLQCTTGLCLTANQIGDCDTATDAGTCPTGYTCFTNAGICCSTTTFSRLRIGNSRQMAQKPNYGRPLHSYMPPPRPIGARCQLDGECVGQAEGLSMCHAGVCQCSPIAYTQGIACVRRKSFQMNDDPVIDAANDDKSSSSVSV | not soluble
12 | MKLTKGKVLLAGCMAMAMSHSVLAQDIKVAIVGAMSGPVAQYGDMQFTGARQAIADINASGGIKGDKLVGVEYDDACDPKQAVAVANKVINDGIRYVIGHLCSSSTQPASDIYEDEGVIMITPAATNADLTTRGYKMIMRTTGLDSDQGPTAAKYIVETIKPKRIAVVHDKQQYGEGLARSVRDSLKEQGAEVVLFEGVTAGDKDFSTLVARLKKENVDFVYFGGYYPEMGQILRQAKQAGLTARFMGPEGVGNSSLSNIAGEASEGMLVTLPKRYDQVPANQPIVDALKAKKLDPTGPFVWTTYAALQSLTTAMERTGSKEPADLANDLKTGKPVETVMGPLSWDDKGDLKGFEFGIFEWHADGSSTAVK | not soluble
13 | SNAMENEKILNPIIIQRADPMIYKHNDGYYYFTASVPEYDRIEVRKAKTIEGLRNAEPVDVWRRHESGEMSNLIWAPEIHFINGAWYIYFAAAPDKNIEDDTFNHRMFVIQNENENPFTGNWVEKGRIKTAWESFSLDATIFEHNEKLYYVWAQQDINIKGHSNIYIAEMENPWTLKTKPVMLTKPELEWEIKGFWVNEGPAVLKKNGKIFITYSASATDVNYCIGMLTAEENSNLLDKNSWTKSQTPVFKTSMENHQYGPGHNSFTVSEDGKHDVIVYHARNYTEIKGDPLYDPNRHTRAQIINWREDGTPDFGVPEVDSLEIETPVKA | soluble
14 | MQNRLTIKDIARLSGVGKSTVSRVLNNESGVSQLTRERVEAVMNQHGFSPSRSARAMRGQSDKVVAIIVTRLDSLSENLAVQTMLPAFYEQGYDPIMMESQFSPQLVAEHLGVLKRRNIDGVVLFGFTGITEEMLAHWQSSLVLLARDAKGFASVCYDDEGAIKILMQRLYDQGHRNISYLGVPHSDVTTGKRRHEAYLAFCKAHKLHPVAALPGLAMKQGYENVAKVITPETTALLCATDTLALGASKYLQEQRIDTLQLASVGNTPLMKFLHPEIVTVDPGYAEAGRQAACQLIAQVTGRSEPQQIIIPATLS | soluble
15 | MSFDANIATQYYILMTIKTFRCADPETLFKLGRVARFVNIERPALRKLKQLDLARCIEDIRVPPANRPEILKGDRAGQHSIRINDQWRVCFRWTGTDAEDVEIVDYH | not soluble
16 | MSLTTYEMARILEQLDESPEKVMYGKLLNELGNQSSERIRSAAKQVPLTVLRDLVYQFQQVIESRKGEQVETMAKELAKQGISAEELLNYLQKR | not soluble
17 | GSHMKVLLLGFEFLPVKVGGLAEALTAISEALASLGHEVLVFTPSHGRFQGEEIGKIRVFGEEVQVKVSYEERGNLRIYRIGGGLLDSEDVYGPGWDGLIRKAVTFGRASVLLLNDLLREEPLPDVVHFHDWHTVFAGALIKKYFKIPAVFTIHRLNKSKLPAFYFHEAGLSELAPYPDIDPEHTGGYIADIVTTVSRGYLIDEWGFFRNFEGKITYVFNGIDCSFWNESYLTGSRDERKKSLLSKFGMDEGVTFMFIGRFDRGQKGVDVLLKAIEILSSKKEFQEMRFIIIGKGDPELEGWARSLEEKHGNVKVITEMLSREFVRELYGSVDFVIIPSYFEPFGLVALEAMCLGAIPIASAVGGLRDIITNETGILVKAGDPGELANAILKALELSRSDLSKFRENCKKRAMSFSWEKSAERYVKAYTGSIDRAFDFIL | soluble
18 | MESFRFDPAGNLLDNAPAPDGHQNDSLLGNLLSQYAGRHYRYDSRGNLVEKRVNGSLTRLEWDSHSRLSRLIAPDGQRTDYHYDPLGRRIAKISQGQATLYGWDGDVLAFETRDEEAVHYLFEPDSFVPLAQVHTDAIRGVKVPAWSQHHPYDPDKDPLRQPAPEPEAPKAVYYYHTDHLGTPQALTDEQGLLALEMDYQAWGQAREVIADAAGKAGIRNPFRFQGQYHDDESGLHYNRHRYYDPEIGRFISRDPIGLKGGYNLFAYAPNTIEWVDPFGLTKLRETDPKARSLSNVQTRCWYLREESKIGYQIDCTKPIKQQARQAARLRNEARIRARLLMADREKAIALHQSDPNLTFKELMALKENKKGLTGKDAYQDIVDSASKSRQSVNKALLEGVDCDKVLEGILEHHHHHH | soluble
